Assays:
[1] = tested on: wheat bran-derived phytase; conditions: Agr. Biol. Chem., 26, 794-803 (1962); read-out: Michaelis constant (Km); cited from earlier work
[2] = tested on: rice bran-derived phytase; conditions: Agr. Biol. Chem., 53, 1475-1483; read-out: Michaelis constant (Km); cited from earlier work
[3] = tested on: maize (Zea mays)-derived phytase; conditions: read-out: Michaelis constant (Km); cited from earlier work
[4] = tested on: Aspergillus ficcum-derived phytase; conditions: WO 91/05053; read-out: Michaelis constant (Km); cited from earlier work
[5] = tested on: Aspergillus oryzae-derived phytase; conditions: read-out: Michaelis constant (Km); cited from earlier work
[6] = tested on: Bacillus subtilis-derived phytase; conditions: read-out: Michaelis constant (Km); cited from earlier work
[7] = tested on: Bacillus natto-derived phytase; conditions: read-out: Michaelis constant (Km); cited from earlier work
[8] = tested on: Escherichia coli-derived phytase; conditions: read-out: Michaelis constant (Km); cited from earlier work
[9] = substrate: O=P(O)(O)O[C@H]1[C@H](OP(=O)(O)O)[C@@H](OP(=O)(O)O)[C@H](OP(=O)(O)O)[C@@H](OP(=O)(O)O)[C@H]1OP(=O)(O)O; assay: Km of novel phytase from Aspergillus niger SK57 (standard assay, Lineweaver-Burk plot); format: biochemical; conditions: other: sodium phytate 0.00625 to 1.25 mM, pH 5.5, 37° C.
Description: (§1) 0.5 ml of 0.2 M acetate buffer, pH 5.5 (sodium acetate) containing 2.5 mM sodium phytate (Sigma) is maintained at 37° C. for 5 minutes, and 0.5 ml of an enzyme solution is added to initiate the reaction. After maintained at 37° C. for 10 minutes, 2 ml of a stop solution of enzyme reaction (i.e., mixture of 1:1:2 10 mM ammonium molybdate, 5 N sulfuric acid and acetone) is added to stop the reaction, and 0.1 ml of 1 M citric acid is further added and mixed. The absorbance of this solution is determined at 380 nm on a spectrophotometer (Hitachi U-2000). One unit of phytase activity is defined as the amount of enzyme allowing to release 1 μmol inorganic phosphorus for 1 minute at pH 5.5 at 37° C.
(§2) The Km value of the novel phytase can be determined by the Lineweaver-Burk plot in which the activity of the novel phytase, as determined by the standard assay, is plotted at varying concentrations of the substrate.
(§3) (1) Km value: The activity was determined according to the standard assay where the substrate concentration was varied in the range of 0.00625 to 1.25 mM. The results were graphted out in Lineweave-Burk plot so that Km values were determined.

[10] = Specific activity of purified phytase, standard assay; format: biochemical; conditions: after purification; pH 5.5, 37° C.
Description: as §1
Ten g of the crude phytase powder obtained in Example 6-2 was dissolved in 50 ml of acetate buffer A [50 mM acetic acid/50 mM sodium acetate (pH 5.5)] and then desalted through an Ultrafilter (cut off molecular weight 10,000; Sartrius). The resulting enzyme solution was applied to a DIAION HPA-75 (Mitsubishi Corporation) column (5.6 cm×30 cm) previously equilibrated with acetate buffer A. After washed with acetate buffer A, novel phytase was eluted with acetate buffer B [50 mM acetic acid/50 mM sodium acetate (pH 4.8)] containing 0.3 M NaCl. […]

[11] = Substrate specificity, standard assay; format: biochemical
Description: as §1
(7) Substrate specificity: The activity was determined by the standard assay method wherein the concentration of substrates was adjusted at 1 mM and 10 mM.

[12] = substrate: O=P(O)(O)O[C@H]1[C@H](OP(=O)(O)O)[C@@H](OP(=O)(O)O)[C@H](OP(=O)(O)O)[C@@H](OP(=O)(O)O)[C@H]1OP(=O)(O)O; assay: Km of novel phytase from transformant Aspergillus oryzae MO-PG3 (standard assay, Lineweaver-Burk plot); format: biochemical; conditions: other: sodium phytate 0.00625 to 1.25 mM, pH 5.5, 37° C.
Description: as §1, §2, §3

[13] = substrate: O=P(O)(O)O[C@H]1[C@H](OP(=O)(O)O)[C@@H](OP(=O)(O)O)[C@H](OP(=O)(O)O)[C@@H](OP(=O)(O)O)[C@H]1OP(=O)(O)O; assay: Km of novel phytase from transformant Aspergillus nidulans M-PA1 (standard assay, Lineweaver-Burk plot); format: biochemical; conditions: other: sodium phytate 0.00625 to 1.25 mM, pH 5.5, 37° C.
Description: as §1, §2, §3

[14] = substrate: O=P(O)(O)O[C@H]1[C@H](OP(=O)(O)O)[C@@H](OP(=O)(O)O)[C@H](OP(=O)(O)O)[C@@H](OP(=O)(O)O)[C@H]1OP(=O)(O)O; assay: Km of novel phytase from transformant Aspergillus niger MH-PA1 (standard assay, Lineweaver-Burk plot); format: biochemical; conditions: other: sodium phytate 0.00625 to 1.25 mM, pH 5.5, 37° C.
Description: as §1, §2, §3

O=P(O)(O)O[C@H]1[C@H](OP(=O)(O)O)[C@@H](OP(=O)(O)O)[C@H](OP(=O)(O)O)[C@@H](OP(=O)(O)O)[C@H]1OP(=O)(O)O [phytic acid]
Km [1]: 570 µM | Km [2]: 170 µM | Km [3]: 117 µM | Km [4]: 250 µM | Km [5]: 330 µM | Km [6]: 150 µM | Km [7]: 500 µM | Km [8]: 130 µM

B1: novel phytase derived from Aspergillus niger SK57, SEQ ID NO:1 (Aspergillus niger CBS 513.88) (protein)
chain: SRNQSTCDTVDQGYQCFSETSHLWGQYAPFFSLANKSAISPDVPAGCHVTFAQVLSRHGARYPTDSKGKKYSALIEEIQQNATTFEGKYAFLKTYNYSLGADDLTPFGEQELVNSGVKFYQRYESLTRNIVPFIRSSGSSRVIASGNKFIEGFQSTKLKDPRAQPGQSSPKIDVVISEASTSNNTLDPGTCTVFEDSELADDIEANFTATFVPSIRQRLENDLSGVSLTDTEVTYLMDMCSFDTISTSTVDTKLSPFCDLFTHEEWINYDYLQSLNKYYGHGAGNPLGPTQGVGYANELIARLTHSPVHDDTSSNHTLDSNPATFPLNSTLYADFSHDNGIISILFALGLYNGTKPLSSTTAENITQTDGFSSAWTVPFASRMYVEMMQCQSEQEPLVRVLVNDRVVPLHGCPVDALGRCTRDSFVKGLSFARSGGDWGECFA
Km [9]: 13 µM

B2: novel phytase from Aspergillus niger SK57: Phytase purified from wheat bran culture of Aspergillus niger SK57 (FERM BP-5473); amino acid sequence SEQ ID NO:1 (protein)
chain: B1 chain
specific activity [10]: 158 U/mg | Relative activity (100%) ([11]; substrate ATP 1 mM): 1.6% | Relative activity (100%) ([11]; substrate ATP 10 mM): 1.2% | Relative activity (100%) ([11]; substrate D-glucose-6-phosphate 1 mM): 0.45% | Relative activity (100%) ([11]; substrate D-glucose-6-phosphate 10 mM): 4.2% | Relative activity (100%) ([11]; substrate D-myo-inositol 1,4,5-tris-phosphate 1 mM): 0.71% | Relative activity (100%) ([11]; substrate D-myo-inositol 1,4,5-tris-phosphate 10 mM): 5.8% | Relative activity (100%) ([11]; substrate fructose-6-phosphate 1 mM): 0.15% | Relative activity (100%) ([11]; substrate fructose-6-phosphate 10 mM): 0.93% | Relative activity (100%) ([11]; substrate glycerophosphoric acid 1 mM): 0.11% | Relative activity (100%) ([11]; substrate glycerophosphoric acid 10 mM): 0.96% | Relative activity (100%) ([11]; substrate p-nitrophenyl phosphate 1 mM): 1.9% | Relative activity (100%) ([11]; substrate p-nitrophenyl phosphate 10 mM): 10% | Relative activity (100%) ([11]; substrate phytic acid 1 mM): 100% | substrate specificity (in words) ([11]; substrates of Table 1 at 1 mM and 10 mM): acted with low specificity on the substrates shown in Table 1, but it had less activity on substrates other than phytic acid

B3: novel phytase (SK57 gene, pANPHY1) derived from Aspergillus oryzae MO-PG3 (Aspergillus niger CBS 513.88) (protein)
chain: B1 chain
notes: secreted, mature, purified, glycosylated
Km [12]: 28 µM

B4: novel phytase (SK57 gene, pANPHY1) derived from Aspergillus nidulans M-PA1 (Aspergillus niger CBS 513.88) (protein)
chain: B1 chain
notes: as for B3
Km [13]: 20 µM

B5: novel phytase (SK57 gene, pANPHY1) derived from Aspergillus niger MH-PA1 (Aspergillus niger CBS 513.88) (protein)
chain: B1 chain
notes: secreted, mature, purified
Km [14]: 30 µM

— patent publication US6548282B2, “Phytase and gene encoding said phytase” (priority 1996, dated 2003)
